Assay in all cases: SPR
(In general: Surface plasmon resonance follows binding to a sensor surface in real time, without labels.)

The target in test [1] is ZIG-5 (purified, SPR) (C. elegans) (UniProt Q9XXD7).
The target of test [2] is ZIG-4 (purified, SPR) (C. elegans) (UniProt G5ECB1).
The target in test [3] is HIR-1 ectodomain (purified) (C. elegans) (UniProt O76385).
For test [4], the target named is NRX-1 LNS6 domain (purified) (C. elegans).
The next test has as its target T1, ZIG-5 (purified, SPR) (C. elegans, UniProt Q9XXD7 26-260).
T1 sequence: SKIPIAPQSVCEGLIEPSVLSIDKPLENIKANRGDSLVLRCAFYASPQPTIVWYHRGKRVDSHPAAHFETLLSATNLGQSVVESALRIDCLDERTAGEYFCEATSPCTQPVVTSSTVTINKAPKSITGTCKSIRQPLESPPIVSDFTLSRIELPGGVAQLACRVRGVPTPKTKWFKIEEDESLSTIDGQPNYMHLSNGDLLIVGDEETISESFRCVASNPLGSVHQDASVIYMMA

The target of a further test is T2, ZIG-4 (purified, SPR) (C. elegans, UniProt G5ECB1 17-253).
T2 sequence: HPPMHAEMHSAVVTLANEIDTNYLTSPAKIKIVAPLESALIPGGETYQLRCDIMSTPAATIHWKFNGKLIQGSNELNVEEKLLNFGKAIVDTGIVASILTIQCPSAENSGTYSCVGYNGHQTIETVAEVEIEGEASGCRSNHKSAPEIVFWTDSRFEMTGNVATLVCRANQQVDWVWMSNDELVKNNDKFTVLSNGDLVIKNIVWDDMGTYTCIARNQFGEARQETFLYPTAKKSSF

With INS-1 (purified, SPR) (ligand), the results for the Kd in test [1] and in test [2] were 3 nM and more than 1000 nM, respectively.

Turning to “B0222.11 (purified) (from UniProt Q4PIU5) (ligand)”, the Kd (usually the free concentration of one partner at which half of the binding sites on the other are occupied at equilibrium, for simple one-to-one binding) in test [3] turned out to be 0.5 nM.

B1: NLG-1 ectodomain (purified) (receptor)
chain: YDVRSVTTSWGMVRGEVVSPEGDDLPPVAQYLGIPYGVAPTGQYRFNMAISAAKWTHMPKDARKVSPVCIQTDMPELSETKAFKHTSAQRFDFNHRLLPHLKKQSEDCLYMNIYVPERLEISRDNYLPVMVIVHGEEYGWGTGNAFNGTTLAAYGHIIVVTLNYRLGVFGFLGRCESSSCSGNSGISDLVSALTMLNVILPSFGGDSKSVTLAGWGSGASLVSLLMASPLTQPGRRLFRRAILLDGSALSPWAISQNPQQYFMQLAEELACAPKNRTSSFNDNVDTIVRCMQVHSSENITKAVLKIDVPTFLSGFAPIVDGQLIPNKPQVSFSTQYGSLFREIDLLVGISSNPSHHMISNEDLKVGISKEKRMRIFRSLVRNLYDFHREEILASIINEYTDWENPRDHPKSIRNGVLNALSDVLYTAPLIETLRSHSADEVRKEANTFMFAFAHETRSWSQEQPNSGIRGSLSGDIVPYIFGYPLAQGDSEERLYSGFNTDDKGISKVMMHYVSNFVKSGDPSKPNPMSKNFPMGDVFHSTAWPQFDQPNREAYLEITDRPRVKNYYRNAQVGFWNNFIPQLHKNGKETEPVGEEHHLLSDHFRKDSYFGKTRHFSSYANLPFPPPPMPPSPPPELTTKPKPSESPTTLQTTTESEKAAAGSFTGKAL
As for B1, the dissociation constant Kd in test [4] came out at 48 µM.

B2: INS-6 (purified, SPR) (ligand)
chain: VPAPGETRACGRKLISLVMAVCGDLCNPQEGKDIATECCGNQCSDDYIRSACCP
In the case of B2, the Kd is more than 1000 nM with ZIG-5 (purified, SPR) and 0.056 nM with ZIG-4 (purified, SPR).
